In article PMC6531468:
pKd: −log10 of the molar value.

Experiments:
[1] = target: IMP3 full length (Homo sapiens) (UniProt O00425); experiment: SELEX; settings: round 4
[2] = target: IMP3 RRM1-2 (Homo sapiens) (UniProt O00425); experiment: SELEX; settings: round 2
[3] = target: IMP3 KH1-2 (Homo sapiens) (UniProt O00425); experiment: SELEX; settings: round 4
[4] = target: IMP3 KH3-4 (Homo sapiens) (UniProt O00425); experiment: SELEX; settings: round 4
[5] = target: IMP3 KH1-4 (Homo sapiens) (UniProt O00425); experiment: SELEX; settings: round 4
Sequence of IMP3 KH1-4 (Homo sapiens) (O00425 164-579): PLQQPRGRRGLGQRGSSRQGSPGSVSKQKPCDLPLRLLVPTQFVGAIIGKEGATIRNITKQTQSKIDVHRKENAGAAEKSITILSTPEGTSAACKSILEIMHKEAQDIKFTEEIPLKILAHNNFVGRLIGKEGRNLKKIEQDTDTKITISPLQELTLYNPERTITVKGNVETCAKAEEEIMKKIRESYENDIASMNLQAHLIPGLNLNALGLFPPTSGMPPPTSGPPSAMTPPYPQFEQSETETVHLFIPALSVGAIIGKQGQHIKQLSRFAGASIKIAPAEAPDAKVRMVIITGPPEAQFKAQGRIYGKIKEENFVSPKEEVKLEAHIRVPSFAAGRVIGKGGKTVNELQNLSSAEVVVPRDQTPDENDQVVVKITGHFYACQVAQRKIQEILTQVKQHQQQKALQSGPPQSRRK

[6] = target: IMP3 full length (Homo sapiens) (UniProt O00425); experiment: EMSA; settings: Hill n 3.1; EMSA: 10 mM Tris-HCl pH 7.5, 150 mM NaCl, 0.5 mM EDTA, 0.5 mM DTT, 0.1% NP-40, 5% glycerol, tRNA+BSA, 5 nM RNA, 30 min RT then ice; ITC/NMR: 20 mM Bis-Tris …

Sequence of IMP3 full length (Homo sapiens) (O00425 whole entry): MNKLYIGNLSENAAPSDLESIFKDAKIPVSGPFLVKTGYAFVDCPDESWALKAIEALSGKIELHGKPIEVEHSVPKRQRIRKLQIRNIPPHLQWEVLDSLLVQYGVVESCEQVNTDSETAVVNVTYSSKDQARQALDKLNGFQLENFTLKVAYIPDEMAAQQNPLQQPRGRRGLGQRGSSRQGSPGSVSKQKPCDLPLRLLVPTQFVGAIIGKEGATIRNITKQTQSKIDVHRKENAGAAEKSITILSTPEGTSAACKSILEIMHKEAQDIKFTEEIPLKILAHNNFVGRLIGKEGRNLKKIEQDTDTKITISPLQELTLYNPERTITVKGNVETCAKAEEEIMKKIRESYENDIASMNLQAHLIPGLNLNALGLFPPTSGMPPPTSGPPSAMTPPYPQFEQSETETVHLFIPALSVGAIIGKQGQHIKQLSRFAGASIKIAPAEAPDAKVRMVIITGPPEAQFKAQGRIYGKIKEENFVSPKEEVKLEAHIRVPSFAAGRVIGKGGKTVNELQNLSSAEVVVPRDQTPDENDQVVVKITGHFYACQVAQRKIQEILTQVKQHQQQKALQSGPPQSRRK
Sequence of IMP3 KH1-2 (Homo sapiens) (O00425 164-376): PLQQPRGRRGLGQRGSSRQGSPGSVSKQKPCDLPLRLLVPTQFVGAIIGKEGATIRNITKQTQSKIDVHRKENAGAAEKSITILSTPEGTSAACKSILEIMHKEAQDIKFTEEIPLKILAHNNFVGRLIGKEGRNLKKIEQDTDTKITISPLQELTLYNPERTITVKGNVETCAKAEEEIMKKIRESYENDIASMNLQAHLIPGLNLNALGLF
Sequence of IMP3 KH3-4 (Homo sapiens) (O00425 377-579): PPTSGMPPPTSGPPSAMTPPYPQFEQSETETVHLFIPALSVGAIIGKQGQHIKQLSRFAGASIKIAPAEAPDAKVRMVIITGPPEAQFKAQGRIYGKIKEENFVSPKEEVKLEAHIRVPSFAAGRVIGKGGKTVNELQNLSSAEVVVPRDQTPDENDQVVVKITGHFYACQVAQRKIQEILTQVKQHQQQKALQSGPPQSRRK
Sequence of IMP3 RRM1-2 (Homo sapiens) (O00425 1-163): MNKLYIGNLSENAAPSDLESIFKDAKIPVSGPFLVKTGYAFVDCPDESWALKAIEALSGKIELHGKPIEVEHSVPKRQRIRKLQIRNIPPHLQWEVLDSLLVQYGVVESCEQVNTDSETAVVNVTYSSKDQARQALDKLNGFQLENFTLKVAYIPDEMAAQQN

In the case of GGCAUC [6-mer GGCATC], the binding signal (SELEX z-score, GST-corrected) [1] was 3.48.

ACAACA [6-mer ACAACA] showed a binding signal (SELEX z-score, GST-corrected) [2] of 3.86 and a binding signal (SELEX z-score, GST-corrected) [3] of 2.86.

With ACAAUA [6-mer ACAATA] the binding signal (SELEX z-score, GST-corrected) [3] was 3.75, the binding signal (SELEX z-score, GST-corrected) [4] was 3.13 and the binding signal (SELEX z-score, GST-corrected) [5] was 2.68.

For AACACA [6-mer AACACA], the binding signal (SELEX z-score, GST-corrected) [2] was 5.77, the binding signal (SELEX z-score, GST-corrected) [3] was 4.09 and the binding signal (SELEX z-score, GST-corrected) [1] was 4.2. For the same substance, the binding signal (SELEX z-score, GST-corrected) [5] was 2.92.

Substance ACACAA [6-mer ACACAA] has a binding signal (SELEX z-score, GST-corrected) [2] of 4.19.

For ACAUCA [6-mer ACATCA], the binding signal (SELEX z-score, GST-corrected) [2] was 3.94 and the binding signal (SELEX z-score, GST-corrected) [1] was 4.02.

Substance GUCGGC [6-mer GTCGGC] has a binding signal (SELEX z-score, GST-corrected) [1] of 3.3.

Work on CAUCAC [6-mer CATCAC] yielded a binding signal (SELEX z-score, GST-corrected) [1] of 3.28.

Substance AAUCAU [6-mer AATCAT] has a binding signal (SELEX z-score, GST-corrected) [2] of 3.82.

GGCACA [6-mer GGCACA] gave a binding signal (SELEX z-score, GST-corrected) [1] of 4.85, a binding signal (SELEX z-score, GST-corrected) [4] of 3.69 and a binding signal (SELEX z-score, GST-corrected) [5] of 3.92.

CAAUCA [6-mer CAATCA] was tested, and the binding signal (SELEX z-score, GST-corrected) [2] was 5.47.

CACAUA [6-mer CACATA] showed a binding signal (SELEX z-score, GST-corrected) [3] of 3.62 and a binding signal (SELEX z-score, GST-corrected) [5] of 3.19.

With CGGCAC [6-mer CGGCAC] the binding signal (SELEX z-score, GST-corrected) [1] was 4.28 and the binding signal (SELEX z-score, GST-corrected) [5] was 2.99.

With ACAUAA [6-mer ACATAA] the binding signal (SELEX z-score, GST-corrected) [3] was 3.61, the binding signal (SELEX z-score, GST-corrected) [4] was 3.74 and the binding signal (SELEX z-score, GST-corrected) [5] was 2.92.

Substance ACGGCA [6-mer ACGGCA] has a binding signal (SELEX z-score, GST-corrected) [1] of 4.07 and a binding signal (SELEX z-score, GST-corrected) [5] of 3.02.

Substance AAUACA [6-mer AATACA] has a binding signal (SELEX z-score, GST-corrected) [3] of 3.44, a binding signal (SELEX z-score, GST-corrected) [4] of 3.32 and a binding signal (SELEX z-score, GST-corrected) [5] of 2.77.

Substance AACAUA [6-mer AACATA] has a binding signal (SELEX z-score, GST-corrected) [3] of 2.92 and a binding signal (SELEX z-score, GST-corrected) [4] of 3.48.

Substance AUAAUA [6-mer ATAATA] has a binding signal (SELEX z-score, GST-corrected) [4] of 3.54.

ACAUAU [6-mer ACATAT] showed a binding signal (SELEX z-score, GST-corrected) [3] of 2.92, a binding signal (SELEX z-score, GST-corrected) [4] of 3.36 and a binding signal (SELEX z-score, GST-corrected) [5] of 2.88.

In the case of GCACAC [6-mer GCACAC], the binding signal (SELEX z-score, GST-corrected) [1] was 3.25.

With AAAUAA [6-mer AAATAA] the binding signal (SELEX z-score, GST-corrected) [4] was 3.39.

In the case of CAAACA [6-mer CAAACA], the binding signal (SELEX z-score, GST-corrected) [2] was 3.91.

Substance CACACA [6-mer CACACA] has a binding signal (SELEX z-score, GST-corrected) [2] of 6.79, a binding signal (SELEX z-score, GST-corrected) [3] of 4.01 and a binding signal (SELEX z-score, GST-corrected) [1] of 4.75. For the same substance, the binding signal (SELEX z-score, GST-corrected) [5] was 3.36.

For AUAACA [6-mer ATAACA], the binding signal (SELEX z-score, GST-corrected) [3] was 3.77, the binding signal (SELEX z-score, GST-corrected) [4] was 4.15 and the binding signal (SELEX z-score, GST-corrected) [5] was 3.19.

CACAAC [6-mer CACAAC] gave a binding signal (SELEX z-score, GST-corrected) [2] of 3.4.

AUCACA [6-mer ATCACA] was tested, and the binding signal (SELEX z-score, GST-corrected) [2] was 4.39 and the binding signal (SELEX z-score, GST-corrected) [1] was 3.5.

In the case of AAUAAU [6-mer AATAAT], the binding signal (SELEX z-score, GST-corrected) [4] was 3.24.

CAUUCA [6-mer CATTCA] showed a binding signal (SELEX z-score, GST-corrected) [2] of 3.79 and a binding signal (SELEX z-score, GST-corrected) [1] of 3.36.

In the case of CAUCAU [6-mer CATCAT], the binding signal (SELEX z-score, GST-corrected) [1] was 3.65.

AAUUAA [6-mer AATTAA] gave a binding signal (SELEX z-score, GST-corrected) [4] of 3.41.

AUAUAA [6-mer ATATAA] showed a binding signal (SELEX z-score, GST-corrected) [4] of 3.89.

Substance UACACA [6-mer TACACA] has a binding signal (SELEX z-score, GST-corrected) [3] of 2.92.

Substance CAACAC [6-mer CAACAC] has a binding signal (SELEX z-score, GST-corrected) [2] of 3.39.

With AAUGAA [6-mer AATGAA] the binding signal (SELEX z-score, GST-corrected) [4] was 3.19.

ACACAC [6-mer ACACAC] gave a binding signal (SELEX z-score, GST-corrected) [2] of 5.19 and a binding signal (SELEX z-score, GST-corrected) [3] of 3.26.

CAUACA [6-mer CATACA] showed a binding signal (SELEX z-score, GST-corrected) [2] of 3.6, a binding signal (SELEX z-score, GST-corrected) [3] of 3.49 and a binding signal (SELEX z-score, GST-corrected) [1] of 3.76. The binding signal (SELEX z-score, GST-corrected) [5] was 2.86.

Substance AUACAU [6-mer ATACAT] has a binding signal (SELEX z-score, GST-corrected) [3] of 3.08 and a binding signal (SELEX z-score, GST-corrected) [5] of 2.8.

In the case of ACACAU [6-mer ACACAT], the binding signal (SELEX z-score, GST-corrected) [2] was 4.49, the binding signal (SELEX z-score, GST-corrected) [3] was 3.81 and the binding signal (SELEX z-score, GST-corrected) [1] was 3.99. For the same substance, the binding signal (SELEX z-score, GST-corrected) [5] was 3.27.

AAUAUA [6-mer AATATA] gave a binding signal (SELEX z-score, GST-corrected) [4] of 3.67.

AAUAAA [6-mer AATAAA] gave a binding signal (SELEX z-score, GST-corrected) [4] of 3.28.

In the case of HMGA2 WT, the pKd [6] was 7.88.

Substance CGGCCA [6-mer CGGCCA] has a binding signal (SELEX z-score, GST-corrected) [5] of 2.71.
